Data reported in PMC7431522.

T1: IL-10 receptor (IL-10R), mouse (mouse (endogenous in BMDMs and splenocytes)) (UniProt Q61727)
T1 sequence: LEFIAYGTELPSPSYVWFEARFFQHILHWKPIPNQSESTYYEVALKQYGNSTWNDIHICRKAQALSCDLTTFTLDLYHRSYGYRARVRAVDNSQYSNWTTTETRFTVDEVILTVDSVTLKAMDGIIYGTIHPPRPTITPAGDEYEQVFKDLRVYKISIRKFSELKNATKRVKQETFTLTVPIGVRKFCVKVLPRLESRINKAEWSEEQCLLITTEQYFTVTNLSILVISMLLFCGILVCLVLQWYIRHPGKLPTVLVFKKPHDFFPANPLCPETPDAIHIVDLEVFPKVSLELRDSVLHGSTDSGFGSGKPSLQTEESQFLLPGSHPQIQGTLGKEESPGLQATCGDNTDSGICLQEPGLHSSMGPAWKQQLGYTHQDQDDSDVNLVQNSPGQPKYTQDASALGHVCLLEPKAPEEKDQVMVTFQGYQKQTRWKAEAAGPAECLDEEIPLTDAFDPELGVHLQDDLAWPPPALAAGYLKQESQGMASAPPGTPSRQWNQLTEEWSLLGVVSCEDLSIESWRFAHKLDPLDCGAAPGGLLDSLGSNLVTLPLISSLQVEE


Experiments:
[1] = biological target: T1, IL-10 receptor (IL-10R), mouse (mouse (endogenous in BMDMs and splenocytes))
[2] = biological target: T1, IL-10 receptor (IL-10R), mouse (mouse (endogenous in BMDMs and splenocytes)); remark: listed apart in the source
[3] = biological target: T1, IL-10 receptor (IL-10R), mouse (mouse (endogenous in BMDMs and splenocytes)); remark: listed apart in the source
[4] = biological target: T1, IL-10 receptor (IL-10R), mouse (mouse (endogenous in BMDMs and splenocytes)); remark: listed apart in the source

Molecule | ED50 of biological activity, dose-response, data as AUC (Figure 5B) [1] [ng/mL] | ED50, suppression of LPS-induced luciferase in BMDMs (Figure 2H) [2] [ng/mL] | suppression of LPS-induced luciferase in hTNF.LucBAC BMDMs, 10 ng/mL [3] [%] | other results
stable mouse IL-10 dimer, 7 amino acid linker (-G3SG3-) (ligand) |  | 0.45 | 60 | ED50, half-maximal suppression of LPS-induced luciferase in hTNF.LucBAC BMDMs (Figure 2C) [3]: 0.04 ng/mL; ED50 of biological activity, dose-response, data as AUC (Figure 5D) [1]: 0.36 ng/mL
natural human IL-10 (non-covalently linked) (from UniProt P22301 19-178) (ligand) |  |  |  | ED50, suppression of LPS-induced luciferase in mouse BMDMs (Figure 8A) [4]: 0.87 ng/mL
natural mouse IL-10 with RRCHR changed to RACHR (from UniProt P18893 19-178) (ligand) | 0.28 |  |  | 
natural mouse IL-10 (non-covalently linked) (ligand) SRGQYSREDNNCTHFPVGQSHMLLELRTAFSQVKTFFQTKDQLDNILLTDSLMQDFKGYLGCQALSEMIQFYLVEVMPQAEKHGPEIKEHLNSLGEKLKTLRMRLRRCHRFLPCENKSKAVEQVKSDFNKLQDQGVYKAMNEFDIFINCIEAYMMIKMKS | 0.1 | 1.5 | 60 | ED50, half-maximal suppression of LPS-induced luciferase in hTNF.LucBAC BMDMs (Figure 2C) [3]: 0.17 ng/mL
commercial mouse IL-10 (ligand) SRGQYSREDNNCTHFPVGQSHMLLELRTAFSQVKTFFQTKDQLDNILLTDSLMQDFKGYLGCQALSEMIQFYLVEVMPQAEKHGPEIKEHLNSLGEKLKTLRMRLRRCHRFLPCENKSKAVEQVKSDFNKLQDQGVYKAMNEFDIFINCIEAYMMIKMKS |  |  | 60 | 

Second part, led by results:

ED50 of biological activity, dose-response, data as AUC (Figure 5B) [1] [ng/mL] | ED50, suppression of LPS-induced luciferase in BMDMs (Figure 2H) [2] [ng/mL] | suppression of LPS-induced luciferase in hTNF.LucBAC BMDMs, 10 ng/mL [3] [%] | Molecule | other results
59.3 |  |  | natural mouse IL-10 with RRCHR changed to ARCHA (from UniProt P18893 19-178) (ligand) | 
 | 0.38 |  | stable mouse IL-10 dimer, 13 amino acid linker (-G3SG4-SG4-) (ligand) | 
 | 0.4 |  | stable mouse IL-10 dimer, 9 amino acid linker (-G3SG4S-) (ligand) | 
0.96 |  |  | natural mouse IL-10 with RRCHR changed to AACHR (from UniProt P18893 19-178) (ligand) | 
